# Substitutions are numbered along the chain they refer to.
# T1: LZTR1 R810W-FLAG (human, UniProt Q8N653 1-840)
# T1 construct: Stably expressed in U87 cells by lentivirus; also called LZTR1-FLAG-R810W; LZTR1 RW; not shown: FLAG tag
# T1 sequence (looked up): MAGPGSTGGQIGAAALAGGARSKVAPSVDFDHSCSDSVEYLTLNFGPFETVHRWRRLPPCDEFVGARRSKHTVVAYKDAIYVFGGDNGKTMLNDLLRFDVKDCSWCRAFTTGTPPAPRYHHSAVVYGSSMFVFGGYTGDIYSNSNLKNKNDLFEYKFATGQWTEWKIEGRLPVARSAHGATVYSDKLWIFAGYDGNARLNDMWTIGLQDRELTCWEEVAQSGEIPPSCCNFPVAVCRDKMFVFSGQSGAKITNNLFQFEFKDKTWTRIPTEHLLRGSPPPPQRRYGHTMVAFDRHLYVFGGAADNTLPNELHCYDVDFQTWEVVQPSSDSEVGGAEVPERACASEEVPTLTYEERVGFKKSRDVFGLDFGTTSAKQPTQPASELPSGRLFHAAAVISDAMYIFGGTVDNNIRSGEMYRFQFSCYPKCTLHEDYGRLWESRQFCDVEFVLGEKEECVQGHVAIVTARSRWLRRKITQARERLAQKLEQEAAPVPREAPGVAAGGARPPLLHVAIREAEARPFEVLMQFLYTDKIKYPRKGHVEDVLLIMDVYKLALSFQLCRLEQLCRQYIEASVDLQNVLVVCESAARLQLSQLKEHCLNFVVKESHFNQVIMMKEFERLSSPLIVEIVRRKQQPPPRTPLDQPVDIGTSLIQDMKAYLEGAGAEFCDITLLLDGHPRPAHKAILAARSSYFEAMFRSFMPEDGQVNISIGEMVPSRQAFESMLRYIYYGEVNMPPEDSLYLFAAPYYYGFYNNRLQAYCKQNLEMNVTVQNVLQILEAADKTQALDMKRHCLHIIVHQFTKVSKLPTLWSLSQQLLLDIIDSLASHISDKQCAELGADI
# T2: LZTR1-FLAG (human, UniProt Q8N653 1-840)
# T2 construct: Expressed in HEK 293T, HeLa or U87 cells; used as cell lysate; also called LZTR1 wild type-FLAG; LZTR1 WT; not shown: FLAG tag at the C-terminus
# T2 sequence (looked up): T1 sequence (looked up) with W810R
# B1: UFL1 (other, human, UniProt O94874 2-794, looked up)
# chain: ADAWEEIRRLAADFQRAQFAEATQRLSERNCIEIVNKLIAQKQLEVVHTLDGKEYITPAQISKEMRDELHVRGGRVNIVDLQQVINVDLIHIENRIGDIIKSEKHVQLVLGQLIDENYLDRLAEEVNDKLQESGQVTISELCKTYDLPGNFLTQALTQRLGRIISGHIDLDNRGVIFTEAFVARHKARIRGLFSAITRPTAVNSLISKYGFQEQLLYSVLEELVNSGRLRGTVVGGRQDKAVFVPDIYSRTQSTWVDSFFRQNGYLEFDALSRLGIPDAVSYIKKRYKTTQLLFLKAACVGQGLVDQVEASVEEAISSGTWVDIAPLLPTSLSVEDAAILLQQVMRAFSKQASTVVFSDTVVVSEKFINDCTELFRELMHQKAEKEMKNNPVHLITEEDLKQISTLESVSTSKKDKKDERRRKATEGSGSMRGGGGGNAREYKIKKVKKKGRKDDDSDDESQSSHTGKKKPEISFMFQDEIEDFLRKHIQDAPEEFISELAEYLIKPLNKTYLEVVRSVFMSSTTSASGTGRKRTIKDLQEEVSNLYNNIRLFEKGMKFFADDTQAALTKHLLKSVCTDITNLIFNFLASDLMMAVDDPAAITSEIRKKILSKLSEETKVALTKLHNSLNEKSIEDFISCLDSAAEACDIMVKRGDKKRERQILFQHRQALAEQLKVTEDPALILHLTSVLLFQFSTHSMLHAPGRCVPQIIAFLNSKIPEDQHALLVKYQGLVVKQLVSQSKKTGQGDYPLNNELDKEQEDVASTTRKELQELSSSIKDLVLKSRKSSVTEE
# B2: UTP6 (other, human, UniProt Q9NYH9 1-597, looked up)
# chain: MAEIIQERIEDRLPELEQLERIGLFSHAEIKAIIKKASDLEYKIQRRTLFKEDFINYVQYEINLLELIQRRRTRIGYSFKKDEIENSIVHRVQGVFQRASAKWKDDVQLWLSYVAFCKKWATKTRLSKVFSAMLAIHSNKPALWIMAAKWEMEDRLSSESARQLFLRALRFHPECPKLYKEYFRMELMHAEKLRKEKEEFEKASMDVENPDYSEEILKGELAWIIYKNSVSIIKGAEFHVSLLSIAQLFDFAKDLQKEIYDDLQALHTDDPLTWDYVARRELEIESQTEEQPTTKQAKAVEVGRKEERCCAVYEEAVKTLPTEAMWKCYITFCLERFTKKSNSGFLRGKRLERTMTVFRKAHELKLLSECQYKQLSVSLLCYNFLREALEVAVAGTELFRDSGTMWQLKLQVLIESKSPDIAMLFEEAFVHLKPQVCLPLWISWAEWSEGAKSQEDTEAVFKKALLAVIGADSVTLKNKYLDWAYRSGGYKKARAVFKSLQESRPFSVDFFRKMIQFEKEQESCNMANIREYYERALREFGSADSDLWMDYMKEELNHPLGRPENCGQIYWRAMKMLQGESAEAFVAKHAMHQTGHL
# B3: VPS16 (other, human, UniProt Q9H269 1-839, looked up)
# chain: MDCYTANWNPLGDSAFYRKYELYSMDWDLKEELRDCLVAAAPYGGPIALLRNPWRKEKAASVRPVLDIYSASGMPLASLLWKSGPVVSLGWSAEEELLCVQEDGAVLVYGLHGDFRRHFSMGNEVLQNRVLDARIFHTEFGSGVAILTGAHRFTLSANVGDLKLRRMPEVPGLQSAPSCWTVLCQDRVAHILLAVGPDLYLLDHAACSAVTPPGLAPGVSSFLQMAVSFTYRHLALFTDTGYIWMGTASLKEKLCEFNCNIRAPPKQMVWCSRPRSKERAVVVAWERRLMVVGDAPESIQFVLDEDSYLVPELDGVRIFSRSTHEFLHEVPAASEEIFKIASMAPGALLLEAQKEYEKESQKADEYLREIQELGQLTQAVQQCIEAAGHEHQPDMQKSLLRAASFGKCFLDRFPPDSFVHMCQDLRVLNAVRDYHIGIPLTYSQYKQLTIQVLLDRLVLRRLYPLAIQICEYLRLPEVQGVSRILAHWACYKVQQKDVSDEDVARAINQKLGDTPGVSYSDIAARAYGCGRTELAIKLLEYEPRSGEQVPLLLKMKRSKLALSKAIESGDTDLVFTVLLHLKNELNRGDFFMTLRNQPMALSLYRQFCKHQELETLKDLYNQDDNHQELGSFHIRASYAAEERIEGRVAALQTAADAFYKAKNEFAAKATEDQMRLLRLQRRLEDELGGQFLDLSLHDTVTTLILGGHNKRAEQLARDFRIPDKRLWWLKLTALADLEDWEELEKFSKSKKSPIGYLPFVEICMKQHNKYEAKKYASRVGPEQKVKALLLVGDVAQAADVAIEHRNEAELSLVLSHCTGATDGATADKIQRARAQAQKK
# B4: UMPS (other, human, UniProt P11172 2-480, looked up)
# chain: AVARAALGPLVTGLYDVQAFKFGDFVLKSGLSSPIYIDLRGIVSRPRLLSQVADILFQTAQNAGISFDTVCGVPYTALPLATVICSTNQIPMLIRRKETKDYGTKRLVEGTINPGETCLIIEDVVTSGSSVLETVEVLQKEGLKVTDAIVLLDREQGGKDKLQAHGIRLHSVCTLSKMLEILEQQKKVDAETVGRVKRFIQENVFVAANHNGSPLSIKEAPKELSFGARAELPRIHPVASKLLRLMQKKETNLCLSADVSLARELLQLADALGPSICMLKTHVDILNDFTLDVMKELITLAKCHEFLIFEDRKFADIGNTVKKQYEGGIFKIASWADLVNAHVVPGSGVVKGLQEVGLPLHRGCLLIAEMSSTGSLATGDYTRAAVRMAEEHSEFVVGFISGSRVSMKPEFLHLTPGVQLEAGGDNLGQQYNSPQEVIGKRGSDIIIVGRGIISAADRLEAAEMYRKAAWEAYLSRLGV
# B5: VPS51 (other, human, UniProt Q9UID3 2-782, looked up)
# chain: AAAAAAGPSPGSGPGDSPEGPEGEAPERRRKAHGMLKLYYGLSEGEAAGRPAGPDPLDPTDLNGAHFDPEVYLDKLRRECPLAQLMDSETDMVRQIRALDSDMQTLVYENYNKFISATDTIRKMKNDFRKMEDEMDRLATNMAVITDFSARISATLQDRHERITKLAGVHALLRKLQFLFELPSRLTKCVELGAYGQAVRYQGRAQAVLQQYQHLPSFRAIQDDCQVITARLAQQLRQRFREGGSGAPEQAECVELLLALGEPAEELCEEFLAHARGRLEKELRNLEAELGPSPPAPDVLEFTDHGGSGFVGGLCQVAAAYQELFAAQGPAGAEKLAAFARQLGSRYFALVERRLAQEQGGGDNSLLVRALDRFHRRLRAPGALLAAAGLADAATEIVERVARERLGHHLQGLRAAFLGCLTDVRQALAAPRVAGKEGPGLAELLANVASSILSHIKASLAAVHLFTAKEVSFSNKPYFRGEFCSQGVREGLIVGFVHSMCQTAQSFCDSPGEKGGATPPALLLLLSRLCLDYETATISYILTLTDEQFLVQDQFPVTPVSTLCAEARETARRLLTHYVKVQGLVISQMLRKSVETRDWLSTLEPRNVRAVMKRVVEDTTAIDVQVGLLYEEGVRKAQSSDSSKRTFSVYSSSRQQGRYAPSYTPSAPMDTNLLSNIQKLFSERIDVFSPVEFNKVSVLTGIIKISLKTLLECVRLRTFGRFGLQQVQVDCHFLQLYLWRFVADEELVHLLLDEVVASAALRCPDPVPMEPSVVEVICERG
# Target: T1, LZTR1 R810W-FLAG
# Assay: IP/MS, LZTR1 R810W-FLAG, U87
# Summary of the method: (§1)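 Read-out: spectral counts from LC-MS/MS (Orbitrap Fusion) after MaxQuant identification. Variable modifications were Met oxidation, protein N-terminal acetylation and N/Q deamidation.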
row,binding result,Binder
1,binds,B1
2,binds,B2
3,binds,B3
4,binds,B4
5,binds,B5

# Target: T2, LZTR1-FLAG
# Assay: IP/MS, LZTR1 wild type-FLAG, U87
# Summary of the method: as §1
row,binding result,Binder
1,binds,B1
2,binds,B2
3,binds,B3
4,binds,B4
5,binds,B5

# Source: patent US20250262210A1 (TRUSTEES OF COLUMBIA UNIVERSITY IN THE CITY OF NEW YORK, published 2025)
